Paper PMC7969025

T1: H1-NTD (hybrid binding domain) (UniProt O60930 27-73)
T1 chain: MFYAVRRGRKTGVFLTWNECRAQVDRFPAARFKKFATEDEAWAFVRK

T2: P54nrb (UniProt Q15233 1-471)
T2 sequence: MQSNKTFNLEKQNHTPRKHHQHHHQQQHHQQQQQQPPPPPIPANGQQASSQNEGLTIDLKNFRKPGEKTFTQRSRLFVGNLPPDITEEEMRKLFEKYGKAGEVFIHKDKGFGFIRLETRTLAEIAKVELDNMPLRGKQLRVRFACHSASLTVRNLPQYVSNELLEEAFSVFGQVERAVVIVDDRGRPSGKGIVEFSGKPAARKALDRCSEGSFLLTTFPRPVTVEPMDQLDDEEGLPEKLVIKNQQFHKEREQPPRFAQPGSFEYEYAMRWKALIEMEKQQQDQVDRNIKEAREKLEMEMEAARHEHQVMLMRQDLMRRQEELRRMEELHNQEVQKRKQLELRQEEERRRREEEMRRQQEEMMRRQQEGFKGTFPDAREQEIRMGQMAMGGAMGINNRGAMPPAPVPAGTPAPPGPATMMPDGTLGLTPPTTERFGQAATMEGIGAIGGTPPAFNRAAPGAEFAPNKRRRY


What was measured:
[1] = target: T1, H1-NTD (hybrid binding domain); assay: thermal shift
P54nrb = target: T2, P54nrb; assay: thermal shift

Binder | binding result [1] | binding result (P54nrb)
GCTAGCCTCTGGATTT (XNA, PS; 3-10-3 2'-F gapmer) [760614 3-10-3 F PS-ASO] | binds | –
CTGCTAGCCTCTGGATTTGA (XNA, PS; 5-10-5 2'-F gapmer) [404130 5-10-5 F PS-ASO] | – | binds
